Substitutions are numbered along the chain they refer to.
Tests used:
Experiment in all cases: scFv ELISA
[1] = target: T1, Peptide 4: Biotin-AGGGGSGGGGSGGGGSAAA-Tyr-acid (N-terminal biotin; C-terminal acid)
T1 construct: Control peptide without PC
T1 peptide: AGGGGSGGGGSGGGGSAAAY
Summary of the method: (§1)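 Bound scFv was read as OD450 after HRP–anti-V5 detection, TMB development and HCl stop. PPE with BSA was incubated 1 h at RT on BSA-blocked wells coated overnight at 4° C. with peptide, or on streptavidin wells loaded 1 h with biotinylated PC-peptides at 1 μg/mL.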

[2] = target: T2, Peptide 8: Biotin-AEAAAKEAAAKEAAAKEAAAKAAA-Tyr-acid (N-terminal biotin; C-terminal acid)
T2 construct: Control peptide without PC
T2 peptide: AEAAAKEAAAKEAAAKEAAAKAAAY
Summary of the method: as §1

[3] = target: Peptide 5: Biotin-…-[Tyr(PC)]-acid
BSA = BSA (UniProt P02769)
[4] = target: Peptide 1: Biotin-…-[Tyr(PC)]-acid

BSA, sequence (P02769 25-607 limits assumed): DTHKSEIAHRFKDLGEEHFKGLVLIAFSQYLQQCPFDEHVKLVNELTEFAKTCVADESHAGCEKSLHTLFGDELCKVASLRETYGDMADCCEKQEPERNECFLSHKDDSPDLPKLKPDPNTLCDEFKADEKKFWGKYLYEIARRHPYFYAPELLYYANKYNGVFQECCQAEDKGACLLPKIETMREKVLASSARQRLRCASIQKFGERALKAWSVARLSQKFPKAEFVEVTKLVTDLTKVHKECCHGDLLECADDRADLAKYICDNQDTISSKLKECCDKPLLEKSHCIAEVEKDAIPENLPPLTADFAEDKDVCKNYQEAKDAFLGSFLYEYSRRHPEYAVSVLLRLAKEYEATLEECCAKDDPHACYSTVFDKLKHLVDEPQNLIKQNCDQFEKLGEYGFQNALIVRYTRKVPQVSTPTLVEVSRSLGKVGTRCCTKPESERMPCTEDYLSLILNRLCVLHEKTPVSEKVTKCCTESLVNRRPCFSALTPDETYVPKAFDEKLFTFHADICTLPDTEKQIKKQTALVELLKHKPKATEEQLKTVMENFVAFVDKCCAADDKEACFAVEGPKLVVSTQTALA

B1: PcOxP_DB02_H05 (scFv, V domains shown)
VH: EVQLLESGGGLVQPGGSLRLSCAASGFTFSDFYMEWVRQAPGKGLEWVAASRNKANDYTTEYADSVKGRFTISRDNSKNTLYLQMNSLRAEDTAVYYCARDYYGSSYWYFDPWGQGTLVTVSS
VL: DIVMTQSPDSLAVSLGERATINCTASESLYSSKHKVHYLAWYQQKPGQPPKLLIYGASNRYLGVPDRFSGSGSGTDFTLTISSLQAEDVAVYYCAQFYSYPLTFGGGTKVEIK
notes: scFv in periplasmic extract
In the case of B1, the OD450 [1] is reported as 0.04 OD450, the OD450 [2] is reported as 0.04 OD450 and the OD450 [3] is reported as 0.44 OD450. For the same binder, the OD450 (BSA) was 0.09 OD450 and the OD450 [4] was 0.2 OD450.

B2: PcOxP_DB03_A06 (scFv, V domains shown)
VH: B1 VH with D31S, F32Y, N53S, S106Q, P112V
VL: B1 VL with S32N, L62I
notes: scFv in periplasmic extract
For B2, the OD450 [1] was 0.05 OD450, the OD450 [2] was 0.05 OD450 and the OD450 [3] was 1.07 OD450. It also gave an OD450 (BSA) of 0.08 OD450 and an OD450 [4] of 0.99 OD450.

B3: PcOxP_DB02_H06 (scFv, V domains shown)
VH: B1 VH with F32Q, P112V
VL: B1 VL with A25S, H34N, H37N, L62I, S99F
notes: scFv in periplasmic extract
Work on B3 yielded an OD450 [1] of 0.05 OD450, an OD450 [2] of 0.05 OD450 and an OD450 [3] of 1.04 OD450. The OD450 (BSA) was 0.07 OD450 and the OD450 [4] was 0.92 OD450.

B4: PcOxP_DB02_H09 (scFv, V domains shown)
VH: B1 VH with D31S, F32Y, T60Y, G104E, P112V
VL: B1 VL with L62I
notes: scFv in periplasmic extract
For B4, the OD450 [1] was 0.04 OD450, the OD450 [2] was 0.04 OD450 and the OD450 [3] was 0.58 OD450. It also gave an OD450 (BSA) of 0.07 OD450 and an OD450 [4] of 0.25 OD450.

B5: PcOxP_DB03_B08 (scFv, V domains shown)
VH: B1 VH with F32Y, P112V
VL: B1 VL with L62I, Q96N
notes: scFv in periplasmic extract
Work on B5 yielded an OD450 [1] of 0.05 OD450, an OD450 [2] of 0.04 OD450 and an OD450 [3] of 1.95 OD450. The OD450 (BSA) was 0.07 OD450 and the OD450 [4] was 2.63 OD450.

B6: PcOxP_DB03_A05 (scFv, V domains shown)
VH: B1 VH with D31E, P112V
VL: B1 VL with Y61A, L62I, S99F
notes: scFv in periplasmic extract
With B6 the OD450 [1] was 0.04 OD450, the OD450 [2] was 0.04 OD450 and the OD450 [3] was 0.78 OD450. The OD450 (BSA) was 0.06 OD450 and the OD450 [4] was 0.93 OD450.

B7: PcOxP_DB03_B03 (scFv, V domains shown)
VH: B1 VH with F32G, P112V
VL: B1 VL with L62I, S99V
notes: scFv in periplasmic extract
Work on B7 yielded an OD450 [1] of 0.04 OD450, an OD450 [2] of 0.04 OD450 and an OD450 [3] of 1.1 OD450. For the same binder, the OD450 (BSA) was 0.07 OD450 and the OD450 [4] was 1.12 OD450.

B8: PcOxP_DB03_A10 (scFv, V domains shown)
VH: B1 VH with F27W, P112V
VL: B1 VL with N59Q, L62I, S99L
notes: scFv in periplasmic extract
Binder B8 has an OD450 [1] of 0.04 OD450, an OD450 [2] of 0.04 OD450 and an OD450 [3] of 0.54 OD450. For the same binder, the OD450 (BSA) was 0.06 OD450 and the OD450 [4] was 0.6 OD450.

B9: PcOxP_DB02_H07 (scFv, V domains shown)
VH: B1 VH with D31S, F32Y, P112V
VL: B1 VL with L62N, S99T
notes: scFv in periplasmic extract
B9 showed an OD450 [1] of 0.04 OD450, an OD450 [2] of 0.05 OD450 and an OD450 [3] of 0.88 OD450. It also gave an OD450 (BSA) of 0.07 OD450 and an OD450 [4] of 0.56 OD450.

B10: PcOxP_DB03_D12 (scFv, V domains shown)
VH: B1 VH with F29N, Y62L, P112V
VL: B1 VL with L62I
notes: scFv in periplasmic extract
In the case of B10, the OD450 [1] is reported as 0.04 OD450, the OD450 [2] is reported as 0.04 OD450 and the OD450 [3] is reported as 0.3 OD450. For the same binder, the OD450 (BSA) was 0.06 OD450 and the OD450 [4] was 0.2 OD450.

B11: PcOxP_DB03_B11 (scFv, V domains shown)
VH: B1 VH with M34V, D57T, P112V
VL: B1 VL with S58Q, L62I, A95G
notes: scFv in periplasmic extract
For B11, the OD450 [1] was 0.05 OD450, the OD450 [2] was 0.05 OD450 and the OD450 [3] was 0.72 OD450. The OD450 (BSA) was 0.07 OD450 and the OD450 [4] was 0.5 OD450.

B12: PcOxP_DB03_D02 (scFv, V domains shown)
VH: B1 VH with F32Y, P112V
VL: B1 VL with S58T, L62I, Q96E
notes: scFv in periplasmic extract
B12 showed an OD450 [1] of 0.05 OD450, an OD450 [2] of 0.04 OD450 and an OD450 [3] of 1.37 OD450. The OD450 (BSA) was 0.09 OD450 and the OD450 [4] was 0.67 OD450.

B13: PcOxP_DB03_D10 (scFv, V domains shown)
VH: B1 VH with F29T, D57G, P112V
VL: B1 VL with N59G, L62I
notes: scFv in periplasmic extract
B13 was tested, and the OD450 [1] was 0.05 OD450, the OD450 [2] was 0.06 OD450 and the OD450 [3] was 1.41 OD450. The OD450 (BSA) was 0.06 OD450 and the OD450 [4] was 1.19 OD450.

B14: PcOxP_DB03_B10 (scFv, V domains shown)
VH: B1 VH with F32Y, T59N, P112V
VL: B1 VL with L62I
notes: scFv in periplasmic extract
B14 gave an OD450 [1] of 0.05 OD450, an OD450 [2] of 0.05 OD450 and an OD450 [3] of 0.71 OD450. The OD450 (BSA) was 0.08 OD450 and the OD450 [4] was 0.41 OD450.

B15: PcOxP_DB03_C01 (scFv, V domains shown)
VH: B1 VH with Y62V, Y107N, P112V
VL: B1 VL with H34I, S58H, L62I
notes: scFv in periplasmic extract
B15 was tested, and the OD450 [1] was 0.05 OD450, the OD450 [2] was 0.05 OD450 and the OD450 [3] was 1.47 OD450. For the same binder, the OD450 (BSA) was 0.08 OD450 and the OD450 [4] was 0.84 OD450.
